Data as given in the nanobody polyreactivity screen of Harvey et al. (2022).

Assay: yeast display, Sf9 membrane polyspecificity reagent, FACS + sequencing; frameworks hold sequencing errors
Summary of the method: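 Nanobodies from a synthetic yeast display library (Saccharomyces cerevisiae BJ5465), induced 36–48 hours with galactose, were stained 1 hour at 4 °C with 10% biotinylated, detergent-solubilized Sf9 membrane reagent, enriched on streptavidin microbeads, then FACS-sorted. Anti-HA (expression) and streptavidin (reagent binding) fluorescence set low and high (top ~1%) gates. Polyreactivity labels come from the gate of origin. Genes were colony-PCR amplified, MiSeq 2 × 250 sequenced and filtered by CDR length.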

Sequence | polyreactivity (PSR sort gate)
QVQLVESGGGLVQAGGSLRLSCAASGFTFYRYAMGWYRQAPGKERELVAAITKSSGRTYYADSVKGRFTISRDNAQITVYLQINSLKPEDTAVYYCNAYYVALPPNMDYWGQGTQVTVSS | high polyreactivity
QVKLVESGGGLVQAGGSLSLSCAASGSTIGGYAMGWYRQAPGKERELVAAIRRSGDSTYYADSVKGRFTISRDNAKNTVYLKMNRLKPEDTAVYYCAASYLHYRYRGRDYWGQGTQVTVSS | low polyreactivity
QVQLVESGGGLVQEGGSLRLSCAASGFTVTDYAMGLYRQAPGKERELVAAITSSGGRTYYADSVKGRFTISRDNAKNTVYLQMNSLKPEDTAGYYCTARPHGSWFEYDYWGQGTEVTVSS | high polyreactivity
QVQLVESGGGLVQAGGSLRLSCAASGSIFELNAMGWYRQAPGKERELVAAITSSGSSTYYADSVKGRFTISRDNAKNTVYLQMNSLKPEDTAVYYCFRPHDYWGQGTQVTVSS | low polyreactivity
QVQLVESGGGLVQAGGSLRLSCAASGFTFTYYAMGWYRQAPGNERELVAAISSGGNTYYADSVKGRFTISRDNAKNTVYLQMNSLKPEDTAVYYCAAQYSKRAWSWTYAYSYFRFDYWGQGTQVTVSS | low polyreactivity
QVQLLESGGGLVQAGRSLRLSCAASGRIFVYYAMGWYRQAPGQERELVATISWSGGSTYYADSVKGRFTISRDNAKNTVYLELNSLKPEDTAVYYCAAEKYISYYSVKRQENGYWGQGSQVTVSS | low polyreactivity
QVQLVESGGGLVQAGGSLRLSCDASGFTIYHYAIGCYRQATGKERELVDANSRSGGSTYYADSVKGRFTISRDNAQNTFYLQMNSLKPEDTAVYYCAKVLRAKNSFDYWGQGTQVTVSS | high polyreactivity
QVQLVESGGGLVQAGGSLRLSCAASGFIFPYYAMGLYRQAPGKERELVAAITFSATRTYYADSVKGRFTISRDNAKNTVYLQMNSLKPEDTAVYYCKARGGVYGSYFEFNYWRQGTQVTVSS | low polyreactivity
QVQLVESGGGLVQAGGSLRLSCAASGLTFSKNAMGWYRQAPGKEREVVATISYSSYRTNYADSVKGRFTISRDNANNPVYLQMNSLKPEDTAVYYCAARVSKGWPTHYDYWGQGTQVTVSS | high polyreactivity
QVQLVESGGGLVQAGGSLRLSCAASGSTLGYYAMGWYRQAPGKERELVAAIRYSDGNTYYADSVKGRFTISRDNAKNTVYLQMNSLKPEDTAVYYCAARRGRSFRGVFYPFEYWGQGTQVTVSS | high polyreactivity
QVQLVESGGGLVQAGGSLRLSCAASGRTIDSNAMGWYRQAPGKERELVAAISSDGGSTYYADSVKGRFTISRDNAKNTVYLQMNSLKPEDTAVYYCNKDDPVDGPLYFRKYDYWGQGTQVTVSS | low polyreactivity
QVQLVESGGGLVQAGGSLRLSCAASGFTFGYYVMGWYRQAPGKERELVAAITSGGSTYYADSVKGRFTISRDNAKNTVYLQMNSLKREDTAVYYCNKYGVVLPGFDYWGQGTQVTVSS | high polyreactivity
QVQLVESGGGLVQAGGSLRLSCAASGFILGHNAMGWYRQAPGKERELVSAITWRGRTYYADSVKGRFTISRDNAKNTVYLHMNSLKPEDTAVYYCASDTKFCYGYWGQGTQVTVSS | high polyreactivity
QVQLVESGGGLVQAGGSLRLSCAASGSIFGGYAMGSYRQAPGKERELVAAISSGGTTNYADSVKGRFTISRDNAKNTVYLQMNSLKPEDTAVYYCAREYGPTYQSVPVKFIQLDYWGQGTQVTVSS | low polyreactivity
QVQLVESGGGLVQAGGSLRLSCAASGRTFPGYAMGWYRQAPGKERELVAAISNSGGRTYYADSVKGRFTISRDYAKNTVYLQMNSLKPEDTAVYYCNATTDNGSNKRYYYWGQGTQVTVSS | high polyreactivity
QVQLVESGGGLVQAGGSLRLSCAASGRTFWTYAMGWYRLAPGKERELVASISKSGGSTYADSVKGRFTITRDNAKNTVYLQMNSLKPEDTAVYYCATDLSYDVWFFGPDYDYWGQGTQVTVSS | low polyreactivity
QVQLVESGGGLVQAGGSLRLSCAASGFTFIGYAMGWYRQAPGKERELVAAITISGGSTYYADSVKGRFTISRDNAKNTVYLQMNSLKPEDTAVYYCNVYRLAAFYSLRGYRYDYWGQGTQVTVSS | high polyreactivity
